Source: the supplement of paper PMC10065799, “High-throughput profiling of sequence recognition by tyrosine kinases and SH2 domains using bacterial peptide display” (eLife, 2023)

The sequences below were run against Fes (UniProt P07332) (assay: phosphorylation enrichment, bacterial display (enrichment ratio); higher = better substrate or ligand; peptides without Tyr show the background).
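Note: 11-residue human phosphosite peptides and single-mutation variants displayed on the E. coli surface, counted by deep sequencing, each peptide's frequency after selection divided by its frequency in the unselected input library; frequency after pTyr selection over input frequency; kinase dosed for 20-30% of maximal phosphorylation in three min.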

Sequence of Fes (P07332 whole entry, looked up): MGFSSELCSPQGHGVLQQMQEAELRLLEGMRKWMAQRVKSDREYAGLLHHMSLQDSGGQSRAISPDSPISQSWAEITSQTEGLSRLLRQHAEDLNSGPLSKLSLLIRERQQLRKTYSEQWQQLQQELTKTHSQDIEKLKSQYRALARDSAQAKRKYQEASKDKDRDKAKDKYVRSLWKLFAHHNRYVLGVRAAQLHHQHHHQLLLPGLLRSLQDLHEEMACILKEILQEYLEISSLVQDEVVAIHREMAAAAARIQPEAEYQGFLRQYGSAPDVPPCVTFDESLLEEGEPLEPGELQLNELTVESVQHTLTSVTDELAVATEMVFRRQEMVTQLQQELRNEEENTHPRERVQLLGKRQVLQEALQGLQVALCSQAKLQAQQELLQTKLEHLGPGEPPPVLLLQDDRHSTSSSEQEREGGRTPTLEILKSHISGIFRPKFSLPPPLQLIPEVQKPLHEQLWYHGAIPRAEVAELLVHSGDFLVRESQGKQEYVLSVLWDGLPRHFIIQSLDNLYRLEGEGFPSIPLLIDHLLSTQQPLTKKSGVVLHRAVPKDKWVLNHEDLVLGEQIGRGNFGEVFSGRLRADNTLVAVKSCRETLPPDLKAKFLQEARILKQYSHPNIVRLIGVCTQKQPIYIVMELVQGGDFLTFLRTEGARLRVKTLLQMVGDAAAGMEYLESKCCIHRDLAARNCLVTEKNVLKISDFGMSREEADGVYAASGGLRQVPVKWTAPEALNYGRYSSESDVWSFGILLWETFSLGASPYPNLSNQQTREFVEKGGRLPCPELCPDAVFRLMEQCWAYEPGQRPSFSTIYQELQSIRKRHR

Going from CQKRKYIEIDS [SDAD1_Y580_S575C] to GRLFAYPDTHR [CAT_Y358], the phosphorylation enrichment falls from 0.814 to 0.756.

First: PAGSGYPAFLG [ATP6V1A_Y374_D371G_YF]
Second: QKMFDYLKEKK [RYR2_Y3780_L3778F]
The phosphorylation enrichment of the first is higher: 1.13 for the first, 0.958 for the second.

First: CTTIHYNYMCN [TP53_Y234]
Second: TKQLTYEEQFL [PIK3C3_Y310_D314Y_YF]
The phosphorylation enrichment of the first is lower: 0.903 for the first, 1.08 for the second.

Going from MPLTEYLKQIK [CNGB3_Y200_R203Q] to LVQAEYWHDPI [PPT1_Y185], the phosphorylation enrichment rises from 0.995 to 1.48.

Compared with AFLLLCFNDTH [BMP15_Y235_Y235C], RGGWVYVLHPT [TRMT61A_Y67] is higher in phosphorylation enrichment: 1.44 for the first, 1.66 for the second.

Going from LGSVVYAQSKE [KCNQ2_Y226_H228Q] to NAPNSYGRRPT [CDKN2A_Y44_I49T], the phosphorylation enrichment falls from 1.31 to 0.717.

Compared with EASEQYLTKAS [NRCAM_Y739], FLAVGYHMPHI [IDS_Y225_K227M] is higher in phosphorylation enrichment: 0.802 for the first, 0.833 for the second.

Going from PVQAVYQKVVA [HBB_Y131_A130V] to RAFRRYLLKQK [SCN2A_Y1919_YF], the phosphorylation enrichment rises from 0.532 to 0.703.

Compared with CTLTHYKSAVK [ASNS_Y555_R550C], RLLRGYRQDAF [HLA-A_Y137_F133L_YF] is higher in phosphorylation enrichment: 0.749 for the first, 0.981 for the second.

Compared with FDNPIYQKTTE [LDLR_Y828_V827I], AGTILYHAHLG [ASS1_Y291_D296G] is higher in phosphorylation enrichment: 0.751 for the first, 1.07 for the second.

First: FFLGKYLQEVL [KLB_Y910_YF]
Second: EPSVDCCVVKI [CAD_Y735_Y735C]
The phosphorylation enrichment of the first is higher: 1.19 for the first, 1.18 for the second.

Compared with SLIDGYFRLTA [JAK2_Y372_YF], AAAAVYTFLPD [MYORG_Y36_M35V] is lower in phosphorylation enrichment: 1.26 for the first, 1.2 for the second.

Compared with SSSNPYSTVTV [ACTN2_Y599_M604V], CLSHCYFSQIR [MCM3AP_Y873_L870S] is higher in phosphorylation enrichment: 0.597 for the first, 0.758 for the second.

First: LDVGEYCVPRG [BEX1_Y43_A40V]
Second: TEIGQYGNGLK [MORC2_Y100_Q96E]
The phosphorylation enrichment of the first is higher: 1.21 for the first, 0.579 for the second.

Going from AATTAYSKPKR [MAP3K7_Y405] to STGWSYAGVAV [KLHL3_Y577_R575W], the phosphorylation enrichment rises from 0.563 to 0.776.

Going from TLMNAYSSRSH [KIF11_Y231] to VHSGTYQVMVR [MYBPC3_Y1043_T1046M], the phosphorylation enrichment rises from 0.579 to 0.637.

CTTIHYNFMCD [TP53_Y234_N239D_YF] gave a phosphorylation enrichment of 1.11.

These sequences were tested against EPHB2 (UniProt P29323) in the same assay as above.
Sequence of EPHB2 (P29323 whole entry, looked up): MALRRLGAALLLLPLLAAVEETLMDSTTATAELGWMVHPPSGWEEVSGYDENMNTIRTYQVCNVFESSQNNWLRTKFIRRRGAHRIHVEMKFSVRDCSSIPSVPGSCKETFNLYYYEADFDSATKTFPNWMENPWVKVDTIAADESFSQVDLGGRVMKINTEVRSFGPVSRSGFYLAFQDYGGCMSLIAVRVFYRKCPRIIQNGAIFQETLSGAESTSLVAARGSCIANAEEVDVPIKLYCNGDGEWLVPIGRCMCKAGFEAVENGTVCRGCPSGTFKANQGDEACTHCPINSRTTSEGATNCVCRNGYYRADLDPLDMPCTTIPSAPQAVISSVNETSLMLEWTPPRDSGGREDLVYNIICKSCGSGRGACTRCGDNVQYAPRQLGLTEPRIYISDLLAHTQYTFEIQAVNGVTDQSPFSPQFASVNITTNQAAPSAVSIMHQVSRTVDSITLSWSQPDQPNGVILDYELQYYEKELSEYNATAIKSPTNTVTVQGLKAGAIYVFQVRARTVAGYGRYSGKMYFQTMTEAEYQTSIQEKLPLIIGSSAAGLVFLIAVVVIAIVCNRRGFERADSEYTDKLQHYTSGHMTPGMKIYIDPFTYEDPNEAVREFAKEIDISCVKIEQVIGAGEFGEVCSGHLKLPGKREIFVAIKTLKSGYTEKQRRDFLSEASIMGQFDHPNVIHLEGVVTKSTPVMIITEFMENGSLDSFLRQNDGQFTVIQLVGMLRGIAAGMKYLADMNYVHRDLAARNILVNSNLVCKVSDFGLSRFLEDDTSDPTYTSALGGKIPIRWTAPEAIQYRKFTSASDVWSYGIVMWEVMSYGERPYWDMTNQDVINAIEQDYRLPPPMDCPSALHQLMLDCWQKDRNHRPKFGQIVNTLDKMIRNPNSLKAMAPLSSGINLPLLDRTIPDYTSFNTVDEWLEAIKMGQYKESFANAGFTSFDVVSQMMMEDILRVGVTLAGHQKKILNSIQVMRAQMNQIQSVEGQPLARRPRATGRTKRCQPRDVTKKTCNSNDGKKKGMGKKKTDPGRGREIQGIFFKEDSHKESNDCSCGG

Compared with CQKRKYIEIDS [SDAD1_Y580_S575C], GRLFAYPDTHR [CAT_Y358] is lower in phosphorylation enrichment: 0.505 for the first, 0.434 for the second.

Compared with PAGSGYPAFLG [ATP6V1A_Y374_D371G_YF], QKMFDYLKEKK [RYR2_Y3780_L3778F] is lower in phosphorylation enrichment: 1.17 for the first, 0.438 for the second.

First: CTTIHYNYMCN [TP53_Y234]
Second: TKQLTYEEQFL [PIK3C3_Y310_D314Y_YF]
The phosphorylation enrichment of the first is higher: 0.696 for the first, 0.622 for the second.

Compared with MPLTEYLKQIK [CNGB3_Y200_R203Q], LVQAEYWHDPI [PPT1_Y185] is lower in phosphorylation enrichment: 0.511 for the first, 0.487 for the second.

Compared with AFLLLCFNDTH [BMP15_Y235_Y235C], RGGWVYVLHPT [TRMT61A_Y67] is higher in phosphorylation enrichment: 0.696 for the first, 0.856 for the second.

Compared with LGSVVYAQSKE [KCNQ2_Y226_H228Q], NAPNSYGRRPT [CDKN2A_Y44_I49T] is lower in phosphorylation enrichment: 0.97 for the first, 0.281 for the second.

First: EASEQYLTKAS [NRCAM_Y739]
Second: FLAVGYHMPHI [IDS_Y225_K227M]
The phosphorylation enrichment of the first is higher: 0.425 for the first, 0.403 for the second.

Going from PVQAVYQKVVA [HBB_Y131_A130V] to RAFRRYLLKQK [SCN2A_Y1919_YF], the phosphorylation enrichment rises from 0.578 to 0.61.

First: CTLTHYKSAVK [ASNS_Y555_R550C]
Second: RLLRGYRQDAF [HLA-A_Y137_F133L_YF]
The phosphorylation enrichment of the first is higher: 0.431 for the first, 0.334 for the second.

First: FDNPIYQKTTE [LDLR_Y828_V827I]
Second: AGTILYHAHLG [ASS1_Y291_D296G]
The phosphorylation enrichment of the first is higher: 1.18 for the first, 0.633 for the second.

Going from FFLGKYLQEVL [KLB_Y910_YF] to EPSVDCCVVKI [CAD_Y735_Y735C], the phosphorylation enrichment rises from 0.474 to 0.499.

Compared with SLIDGYFRLTA [JAK2_Y372_YF], AAAAVYTFLPD [MYORG_Y36_M35V] is higher in phosphorylation enrichment: 0.716 for the first, 2.45 for the second.

First: SSSNPYSTVTV [ACTN2_Y599_M604V]
Second: CLSHCYFSQIR [MCM3AP_Y873_L870S]
The phosphorylation enrichment of the first is lower: 0.359 for the first, 0.497 for the second.

Going from LDVGEYCVPRG [BEX1_Y43_A40V] to TEIGQYGNGLK [MORC2_Y100_Q96E], the phosphorylation enrichment falls from 2.47 to 0.434.

First: AATTAYSKPKR [MAP3K7_Y405]
Second: STGWSYAGVAV [KLHL3_Y577_R575W]
The phosphorylation enrichment of the first is lower: 0.264 for the first, 0.454 for the second.

Compared with TLMNAYSSRSH [KIF11_Y231], VHSGTYQVMVR [MYBPC3_Y1043_T1046M] is higher in phosphorylation enrichment: 0.517 for the first, 0.648 for the second.

CTTIHYNFMCD [TP53_Y234_N239D_YF] was tested, and the phosphorylation enrichment was 0.499.

Each sequence was assayed on c-Src in the same assay as above.

First: CQKRKYIEIDS [SDAD1_Y580_S575C]
Second: GRLFAYPDTHR [CAT_Y358]
The phosphorylation enrichment of the first is higher: 0.479 for the first, 0.356 for the second.

Compared with PAGSGYPAFLG [ATP6V1A_Y374_D371G_YF], QKMFDYLKEKK [RYR2_Y3780_L3778F] is lower in phosphorylation enrichment: 0.735 for the first, 0.471 for the second.

First: CTTIHYNYMCN [TP53_Y234]
Second: TKQLTYEEQFL [PIK3C3_Y310_D314Y_YF]
The phosphorylation enrichment of the first is lower: 0.469 for the first, 0.5 for the second.

Going from MPLTEYLKQIK [CNGB3_Y200_R203Q] to LVQAEYWHDPI [PPT1_Y185], the phosphorylation enrichment rises from 0.582 to 0.61.

Compared with AFLLLCFNDTH [BMP15_Y235_Y235C], RGGWVYVLHPT [TRMT61A_Y67] is higher in phosphorylation enrichment: 0.413 for the first, 0.895 for the second.

Going from LGSVVYAQSKE [KCNQ2_Y226_H228Q] to NAPNSYGRRPT [CDKN2A_Y44_I49T], the phosphorylation enrichment falls from 1.08 to 0.528.

Going from EASEQYLTKAS [NRCAM_Y739] to FLAVGYHMPHI [IDS_Y225_K227M], the phosphorylation enrichment falls from 0.458 to 0.334.

First: PVQAVYQKVVA [HBB_Y131_A130V]
Second: RAFRRYLLKQK [SCN2A_Y1919_YF]
The phosphorylation enrichment of the first is higher: 1.61 for the first, 0.671 for the second.

Compared with CTLTHYKSAVK [ASNS_Y555_R550C], RLLRGYRQDAF [HLA-A_Y137_F133L_YF] is higher in phosphorylation enrichment: 0.408 for the first, 0.819 for the second.

Going from FDNPIYQKTTE [LDLR_Y828_V827I] to AGTILYHAHLG [ASS1_Y291_D296G], the phosphorylation enrichment falls from 1.44 to 0.549.

Going from FFLGKYLQEVL [KLB_Y910_YF] to EPSVDCCVVKI [CAD_Y735_Y735C], the phosphorylation enrichment falls from 0.469 to 0.369.

Compared with SLIDGYFRLTA [JAK2_Y372_YF], AAAAVYTFLPD [MYORG_Y36_M35V] is higher in phosphorylation enrichment: 0.483 for the first, 7.02 for the second.

Compared with SSSNPYSTVTV [ACTN2_Y599_M604V], CLSHCYFSQIR [MCM3AP_Y873_L870S] is lower in phosphorylation enrichment: 1.29 for the first, 0.432 for the second.

First: LDVGEYCVPRG [BEX1_Y43_A40V]
Second: TEIGQYGNGLK [MORC2_Y100_Q96E]
The phosphorylation enrichment of the first is higher: 0.539 for the first, 0.331 for the second.

Going from AATTAYSKPKR [MAP3K7_Y405] to STGWSYAGVAV [KLHL3_Y577_R575W], the phosphorylation enrichment rises from 0.354 to 0.462.

First: TLMNAYSSRSH [KIF11_Y231]
Second: VHSGTYQVMVR [MYBPC3_Y1043_T1046M]
The phosphorylation enrichment of the first is lower: 0.54 for the first, 0.988 for the second.

CTTIHYNFMCD [TP53_Y234_N239D_YF] gave a phosphorylation enrichment of 0.538.

The sequences below were run against EPHB1 (UniProt P54762) in the same assay as above.
Sequence of EPHB1 (P54762 whole entry, looked up): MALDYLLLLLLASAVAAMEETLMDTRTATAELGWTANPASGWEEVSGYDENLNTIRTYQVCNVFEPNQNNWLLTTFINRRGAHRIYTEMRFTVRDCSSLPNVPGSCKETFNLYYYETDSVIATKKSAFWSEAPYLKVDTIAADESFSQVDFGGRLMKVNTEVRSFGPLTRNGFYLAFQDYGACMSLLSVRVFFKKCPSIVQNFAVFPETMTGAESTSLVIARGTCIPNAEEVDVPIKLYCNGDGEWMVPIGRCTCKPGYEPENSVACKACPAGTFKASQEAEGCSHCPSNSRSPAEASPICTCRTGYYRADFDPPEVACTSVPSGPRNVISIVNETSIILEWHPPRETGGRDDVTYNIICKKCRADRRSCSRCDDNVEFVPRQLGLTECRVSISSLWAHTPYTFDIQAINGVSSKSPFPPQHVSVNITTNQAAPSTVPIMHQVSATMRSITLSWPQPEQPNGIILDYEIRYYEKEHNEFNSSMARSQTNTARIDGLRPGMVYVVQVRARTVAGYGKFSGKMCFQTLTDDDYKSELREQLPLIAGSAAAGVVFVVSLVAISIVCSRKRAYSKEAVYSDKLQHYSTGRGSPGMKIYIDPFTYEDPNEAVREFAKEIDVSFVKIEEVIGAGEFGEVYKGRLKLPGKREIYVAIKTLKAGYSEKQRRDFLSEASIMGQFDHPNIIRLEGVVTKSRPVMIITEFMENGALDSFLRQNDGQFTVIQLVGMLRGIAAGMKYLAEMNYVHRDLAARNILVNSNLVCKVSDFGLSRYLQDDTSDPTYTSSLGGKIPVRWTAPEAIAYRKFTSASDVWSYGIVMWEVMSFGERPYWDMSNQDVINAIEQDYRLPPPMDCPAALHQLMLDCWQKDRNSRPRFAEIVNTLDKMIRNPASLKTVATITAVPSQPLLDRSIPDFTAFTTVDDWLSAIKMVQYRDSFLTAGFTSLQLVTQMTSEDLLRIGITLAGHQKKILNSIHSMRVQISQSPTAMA

First: CQKRKYIEIDS [SDAD1_Y580_S575C]
Second: GRLFAYPDTHR [CAT_Y358]
The phosphorylation enrichment of the first is higher: 0.513 for the first, 0.49 for the second.

First: PAGSGYPAFLG [ATP6V1A_Y374_D371G_YF]
Second: QKMFDYLKEKK [RYR2_Y3780_L3778F]
The phosphorylation enrichment of the first is higher: 0.634 for the first, 0.558 for the second.

First: CTTIHYNYMCN [TP53_Y234]
Second: TKQLTYEEQFL [PIK3C3_Y310_D314Y_YF]
The phosphorylation enrichment of the first is higher: 0.762 for the first, 0.611 for the second.

First: MPLTEYLKQIK [CNGB3_Y200_R203Q]
Second: LVQAEYWHDPI [PPT1_Y185]
The phosphorylation enrichment of the first is lower: 0.572 for the first, 0.677 for the second.

Compared with AFLLLCFNDTH [BMP15_Y235_Y235C], RGGWVYVLHPT [TRMT61A_Y67] is higher in phosphorylation enrichment: 0.724 for the first, 1.07 for the second.

Compared with LGSVVYAQSKE [KCNQ2_Y226_H228Q], NAPNSYGRRPT [CDKN2A_Y44_I49T] is lower in phosphorylation enrichment: 1.86 for the first, 0.452 for the second.

Going from EASEQYLTKAS [NRCAM_Y739] to FLAVGYHMPHI [IDS_Y225_K227M], the phosphorylation enrichment falls from 0.424 to 0.346.

Compared with PVQAVYQKVVA [HBB_Y131_A130V], RAFRRYLLKQK [SCN2A_Y1919_YF] is lower in phosphorylation enrichment: 0.727 for the first, 0.535 for the second.

First: CTLTHYKSAVK [ASNS_Y555_R550C]
Second: RLLRGYRQDAF [HLA-A_Y137_F133L_YF]
The phosphorylation enrichment of the first is lower: 0.564 for the first, 0.809 for the second.

Going from FDNPIYQKTTE [LDLR_Y828_V827I] to AGTILYHAHLG [ASS1_Y291_D296G], the phosphorylation enrichment falls from 1.16 to 0.534.

First: FFLGKYLQEVL [KLB_Y910_YF]
Second: EPSVDCCVVKI [CAD_Y735_Y735C]
The phosphorylation enrichment of the first is higher: 0.486 for the first, 0.449 for the second.

First: SLIDGYFRLTA [JAK2_Y372_YF]
Second: AAAAVYTFLPD [MYORG_Y36_M35V]
The phosphorylation enrichment of the first is lower: 0.539 for the first, 3.68 for the second.

Going from SSSNPYSTVTV [ACTN2_Y599_M604V] to CLSHCYFSQIR [MCM3AP_Y873_L870S], the phosphorylation enrichment rises from 0.342 to 0.41.

Compared with LDVGEYCVPRG [BEX1_Y43_A40V], TEIGQYGNGLK [MORC2_Y100_Q96E] is lower in phosphorylation enrichment: 2.26 for the first, 0.543 for the second.

Going from AATTAYSKPKR [MAP3K7_Y405] to STGWSYAGVAV [KLHL3_Y577_R575W], the phosphorylation enrichment rises from 0.275 to 0.515.

Compared with TLMNAYSSRSH [KIF11_Y231], VHSGTYQVMVR [MYBPC3_Y1043_T1046M] is higher in phosphorylation enrichment: 0.436 for the first, 2.04 for the second.

Work on CTTIHYNFMCD [TP53_Y234_N239D_YF] yielded a phosphorylation enrichment of 0.545.
